Results on ten substances are retold here after patent US20240132578A1.

What all share (experiment): cell-based or functional assay
Assay [1] concerns the target HIV-1 Env of pseudovirus ZM233 (HIV-1).
The target in assay [2] is HIV-1 Env of pseudovirus DU422 (HIV-1).
For assay [3], the target named is HIV-1 Env of pseudovirus TR0.11 (HIV-1).
Assay [4] has as its target HIV-1 JR-FL Env E168K, on pseudovirus (HIV-1 isolate JR-FL (clade B)).
Assay [5] deals with Envelope protein of control pseudovirus MuLV (MuLV).
In assay [6] the target is HIV-1 envelope glycoprotein (Env) of isolate MG RM-A-004 (HIV-1).
Assay [7] deals with HIV-1 Env of isolate MG RM-D-029 (subtype D) (HIV-1).
For assay [8], the target named is HIV-1 Env of isolate MGRM-F1-014 (subtype F) (HIV-1).
The target in assay [9] is HIV-1 NL43 envelope glycoprotein (Env), clade B pseudovirus (HIV-1).
The target of assay [10] is HIV-1 92RW020 envelope glycoprotein (Env), clade A pseudovirus (HIV-1).
Assay [11] has as its target HIV-1 envelope glycoprotein (Env) of isolate APV13 (HIV-1).
The target in assay [12] is HIV-1 envelope glycoprotein (Env) of isolate APV6 (HIV-1).
Assay [13] concerns the target HIV-1 envelope glycoprotein (Env) of isolate 92BR020 (HIV-1).
Assay [14] concerns the target HIV-1 envelope glycoprotein (Env) of isolate JRFL (HIV-1).
The target of assay [15] is HIV-1 93UG077 Env (HIV-1 isolate 93UG077 (clade A)).
Assay [16] has as its target HIV-1 APV6 Env (HIV-1 isolate APV6 (clade B)).
The target in assay [17] is HIV-1 JR-CSF Env E321aA (HIV-1 (isolate JR-CSF, clade B)) (UniProt P20871).
Assay [18] concerns the target HIV-1 MGRM-D-001 envelope glycoprotein (Env) (HIV-1).
For assay [19], the target named is HIV-1 92TH021 envelope glycoprotein (Env) (HIV-1).
Assay [20] concerns the target HIV-1 APV13 envelope glycoprotein (Env) (HIV-1).
Assay [21] has as its target HIV-1 MGRM-C-028 envelope glycoprotein (Env) (HIV-1).
Assay [22] has as its target HIV-1 94UG103 envelope glycoprotein (Env) (HIV-1).
Assay [23] deals with HIV-1 NL43 envelope glycoprotein (Env) (HIV-1).
For assay [24], the target named is HIV-1 MGRM-C-027 Env (pseudovirus) (HIV-1).
Assay [25] addresses HIV-1 MGRM-D-001 Env (pseudovirus) (HIV-1).
The target in assay [26] is HIV-1 92UG005 Env (pseudovirus) (HIV-1).
In assay [27] the target is HIV-1 92UG024 Env (pseudovirus) (HIV-1).
Assay [28] deals with HIV-1 93IN905 Env (pseudovirus) (HIV-1).
The target of assay [29] is HIV-1 APV17 envelope glycoprotein (Env) on virus (HIV-1, clade B, isolate APV17).
In assay [30] the target is aMLV envelope protein on virus (negative control) (aMLV).
The target of assay [31] is HIV-1 92TH021 envelope glycoprotein (Env) on virus (HIV-1, clade AE, isolate 92TH021).
Assay [32] has as its target HIV-1 Env of isolate NL43 (clade B) (HIV-1).

Broadly, the IC50 is the midpoint of a concentration-inhibition curve.

Where only a bound is given, the exact number is not on record here.

5329_C19 (PGT-136) (antibody), sequence (VH): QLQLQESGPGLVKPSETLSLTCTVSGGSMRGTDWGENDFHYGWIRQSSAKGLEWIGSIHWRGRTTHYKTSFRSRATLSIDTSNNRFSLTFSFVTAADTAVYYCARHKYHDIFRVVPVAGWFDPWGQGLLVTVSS
5329_C19 (PGT-136) (antibody), sequence (VL): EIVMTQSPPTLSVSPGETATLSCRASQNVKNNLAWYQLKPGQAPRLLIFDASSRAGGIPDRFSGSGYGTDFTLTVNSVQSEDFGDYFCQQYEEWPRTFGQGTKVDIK
1443_C16 (PG16) (TCN-116) (antibody), sequence (VH): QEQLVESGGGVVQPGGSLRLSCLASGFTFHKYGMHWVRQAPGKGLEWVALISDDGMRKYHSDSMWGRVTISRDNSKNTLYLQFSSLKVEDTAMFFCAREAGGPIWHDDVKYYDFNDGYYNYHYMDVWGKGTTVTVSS
1443_C16 (PG16) (TCN-116) (antibody), sequence (VL): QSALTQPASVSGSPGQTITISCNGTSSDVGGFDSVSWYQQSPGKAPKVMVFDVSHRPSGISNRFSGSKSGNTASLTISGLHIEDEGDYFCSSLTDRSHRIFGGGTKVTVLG

With 1443_C16 (PG16) (TCN-116) (antibody), the values for the IC50, pseudovirus neutralization (TZM-bl assay) in assay [1], in [2] and in assay [3] were under 0.01 µg/mL, 0.59 µg/mL and 3.61 µg/mL, respectively. Moreover, the IC50 (ug/ml), pseudovirus neutralization, TZM-bl assay in [4] came to 0.006 µg/mL. For the same substance, in assay [5], the IC50, pseudovirus neutralization (TZM-bl assay), control virus was over 25 µg/mL.
With PGV04 (antibody), in [6], the concentration for half-maximal inhibition (IC50) was determined as 0.175 µg/mL. Moreover, the IC50 (µg/mL), pseudovirus neutralization stood at 1.56 µg/mL in assay [7] and 0.02 µg/mL in assay [8].
Regarding 4858_P08 (PGT-123) (antibody), in assay [9], the IC50, pseudovirus neutralization was over 10 µg/mL; the IC80 (pseudovirus neutralization) is over 10 µg/mL; the IC90 (pseudovirus neutralization) is over 10 µg/mL; the IC95 (pseudovirus neutralization) was over 10 µg/mL. In addition, in assay [10], the IC50, pseudovirus neutralization amounted to 0.0038 µg/mL; the IC80 (pseudovirus neutralization) was found to be 0.0106 µg/mL; the IC90 (pseudovirus neutralization) was 0.0194 µg/mL; the IC95 (pseudovirus neutralization) is 0.0343 µg/mL.
Regarding 5141_B17 (PGT-126) (antibody), in assay [11], the Neutralization IC80 worked out at 0.0411 µg/mL, the Neutralization IC90 was found to be 0.084 µg/mL, the Neutralization IC95 worked out at 0.162 µg/mL and the neutralization IC50 was 0.012 µg/mL. Moreover, in assay [12], the Neutralization IC80 turned out to be 0.0681 µg/mL, the Neutralization IC90 came to 0.123 µg/mL, the Neutralization IC95 is 0.213 µg/mL and the neutralization IC50 worked out at 0.0249 µg/mL. In [13], this substance gave a Neutralization IC80 of 0.0457 µg/mL, a Neutralization IC90 of 0.0846 µg/mL, a Neutralization IC95 of 0.152 µg/mL and a neutralization IC50 of 0.0163 µg/mL. In addition, in [14], the Neutralization IC80 came out at 0.0454 µg/mL, the Neutralization IC90 was 0.09 µg/mL, the Neutralization IC95 was found to be 0.169 µg/mL and the neutralization IC50 was 0.014 µg/mL.
In [15], 4838_L06 (PGT-121) (antibody) showed a Neutralization IC90 of 0.369 µg/mL and a Neutralization IC95 of 0.74 µg/mL. In [16], this substance had a Neutralization IC80 of 0.145 µg/mL and a Neutralization IC95 of 0.569 µg/mL.
5136_H01 (PGT-131) (antibody) yielded a Fold IC50 increase relative to wild-type in assay [17] of 1.8 fold.
Consider 5329_C19 (PGT-136) (antibody), for which the Neutralization IC80 in assay [18], in assay [19], in [20], in assay [21], in assay [22] and in [23] was over 10 µg/mL each time. Moreover, the Neutralization IC90 in assay [18], in assay [19], in assay [20], in [21], in assay [22] and in assay [23] was over 10 µg/mL in each case. For the same substance, the Neutralization IC95 in assay [18], in assay [19], in assay [20], in [21], in [22] and in [23] was over 10 µg/mL throughout. Also, the neutralization IC50 in assay [18], in assay [19], in assay [20], in [21], in [22] and in assay [23] was over 10 µg/mL in each case.
As for 5123_A06 (PGT-125) (antibody), the Neutralization by PGT-125, IC50 was over 10 µg/mL in assay [24]; 2.31 µg/mL in [25]; over 10 µg/mL in assay [26]; over 10 µg/mL in assay [27]; 0.0137 µg/mL in [28]. In addition, the Neutralization by PGT-125, IC80 is over 10 µg/mL in [24]; over 10 µg/mL in [25]; over 10 µg/mL in assay [26]; over 10 µg/mL in [27]; 0.0494 µg/mL in assay [28]. Further, the Neutralization by PGT-125, IC90 was over 10 µg/mL in assay [24]; over 10 µg/mL in assay [25]; over 10 µg/mL in assay [26]; over 10 µg/mL in assay [27]; 0.106 µg/mL in assay [28]. Also, the Neutralization by PGT-125, IC95 in assay [24] was over 10 µg/mL; in assay [25], over 10 µg/mL; in assay [26] it was over 10 µg/mL; in assay [27], over 10 µg/mL; in assay [28], 0.216 µg/mL.
In assay [29], 4877_D15 (PGT-122) (antibody) yielded a Neutralization IC80 of 1.76 µg/mL, a Neutralization IC90 of 3.58 µg/mL, a Neutralization IC95 of 6.92 µg/mL and a neutralization IC50 of 0.522 µg/mL. Besides, in assay [30], the Neutralization IC80 is over 10 µg/mL, the Neutralization IC90 was over 10 µg/mL, the Neutralization IC95 was over 10 µg/mL and the neutralization IC50 is over 10 µg/mL. In [31], this substance showed a Neutralization IC80 of over 10 µg/mL, a Neutralization IC90 of over 10 µg/mL, a Neutralization IC95 of over 10 µg/mL and a neutralization IC50 of over 10 µg/mL.
Substance 1496_C09 (PG9) (TCN-109) (antibody) registered a neutralization IC50 in assay [32] of 0.687 µg/mL.
